According to patent US5773574A, “Polypeptides for promoting cell attachment” (The Scripps Research Institute, priority 1991, dated 1998):
Blank lines part the entries; values can stand above or below the compound they belong to. Residues, ends and D or L forms follow the SMILES beside them.

Experiments:
[1] = target: GPIIb-IIIa (Homo sapiens (Human)) (UniProt P08514); assay: competition with 10 nM biotinylated Fn on GPIIb-IIIa-coated wells
[2] = target: GPIIb-IIIa (Homo sapiens (Human)) (UniProt P08514); assay: 125I-labelled ligand on GPIIb-IIIa-coated wells; no inhibitor
[3] = target: GPIIb-IIIa (Homo sapiens (Human)) (UniProt P08514); assay: 125I-labelled ligand on GPIIb-IIIa-coated wells; inhibitor Mab 16.12
[4] = target: GPIIb-IIIa (Homo sapiens (Human)) (UniProt P08514); assay: 10 nM biotinylated Fn on GPIIb-IIIa-coated wells, avidin-HRP detection
[5] = target: GPIIb-IIIa (Homo sapiens (Human)) (UniProt P08514); assay: 125I-labelled ligand on GPIIb-IIIa-coated wells; inhibitor 2 mM GDTA (so in the source)
[6] = target: T1, GPIIb-IIIa (Homo sapiens, UniProt P05106+P08514); assay: Interaction of 125I-labelled ligands with GPIIb-IIIa coated microtiter wells (Table 3); format: binding; conditions: 125I-labelled ligand
T1 construct: GPIIb-IIIa from platelet lysates is purified by the following procedure; from tissue
Method: Incubate the GPIIb-IIIa with plate for 1 hour at room temperature, then dump unbound and block with 150 ul of 5% BSA in the same buffer for 1 hour at room temperature. Wash three times with 150 μl of Tyrode's buffer with 5 mM HEPES, 1 mM MgCl2 1 mg/ml dextrose, 1 mg/ml BSA. Add 50 μl of ^125 I fusion protein (125 mg/ml) at varied concentration (4×10^-7 to 1×10^-10 M). Incubate 4 hours to overnight at room temperature (with lead shield).
Carefully remove radioactive samples and wash 3 times with 150 μl Tyrodes with 5 mM HEPES, 1 mM MgCl2, 1 mg/ml dextrose, 1 mg/ml BSA. Count with a Gamma Counter and elute by boiling in SDS-PAGE loading Buffer.
To determine if the insert coded polypeptide containing fibronectin residues 1255-1456 bound GPIIb-IIIa, the capacity of microtiter wells coated with purified GPIIb-IIIa to bind the radiolabelled fusion-protein preparation was ascertained (Table 3). In addition, the radiolabelled material bound to the insolubilized GPIIb-IIIa was recovered and analyzed by SDS-PAGE followed by radioautography. […] The isolated protein products were a mixture of insert coded polypeptides containing fusion protein and maltose binding protein breakdown products. only those bands containing the insert-coded polypeptide bound to the insolubilized GPIIb-IIIa and that binding was inhibitable by either EDTA or the monoclonal antibody FnI-16.

[7] = target: T1, GPIIb-IIIa; assay: Competition assay: biotinylated Fn binding to purified GPIIb-IIIa in presence of synthetic polypeptides; conditions: 250 μM polypeptide, 10 nM biotinylated Fn; FIG. 9
Method: (SEQ ID NO 11) as shown by the line with closed squares. […] The competition assays were performed in microtiter wells of a 96-well plate as described in Example 9b(1). Briefly, microtiter wells coated with purified GPIIb-IIIa receptor were maintained with 10 nM biotinylated Fn for 2 hours at room temperature in the presence of varying concentrations of D-11-T and RGDS.
The competition assay was performed by first admixing into individual wells of a 96 well microtiter plate (Immunlon, Dynatech) 10 μg/ml of purified GPIIb-IIIa, prepared in Example 1, diluted in HEPES-saline buffer, pH 7.4, consisting of 10 mM HEPES, 150 mM NaCl, 1 mM CaCl2 and 1 mM MgCl2. […]
The Fn-peptide admixtures were maintained in GPIIb-IIIa-coated wells for 2 hours at room temperature to allow the biotinylated Fn to bind to the receptor. Following this maintenance period, the reacted wells were washed as described above and the amount of biotinylated Fn bound to GPIIb-IIIa was determined by admixing 0.1 ml avidin bound to biotinylated horseradish peroxidase H (Hrp) (Sigma, St. Louis, Mo.) at a 1:2000 dilution to form an avidin-biotinylated Fn admixture. […] After maintaining the color developing-reaction admixture for 10 minutes at 20° C., the reaction was stopped with the admixture of 2N H2 SO4, and the stopped reactions were measured for absorbance as described in Example 3a. […]

- percent inhibition of control binding at 200 µM polypeptide [1]: 35 to 40%
Compound: polypeptide DRVPHSR

- Counts ×10^-3 (counts ×10^-3) [2]: 42
- Counts ×10^-3 (counts ×10^-3) [3]: 12
- absorbance at 490 nm (absorbance at 490 nm) [4]: 2.7
- Counts ×10^-3 (counts ×10^-3) [5]: 8
Compound: fibronectin (Fn), intact, isolated from fresh human citrated plasma (from UniProt P02751) (ligand)

- Counts ×10^-3 ([6]; inhibitor 2 mM EDTA): 8 Counts ×10^-3
- Counts ×10^-3 ([6]; inhibitor Mab 16.12): 12 Counts ×10^-3
- Counts ×10^-3 ([6]; no inhibitor): 42 Counts ×10^-3
Compound: Fibronectin: intact Fn isolated from fresh human citrated plasma on gelatin-sepharose

Compound: CC[C@H](C)[C@H](NC(=O)[C@H](CO)NC(=O)[C@H](CC(N)=O)NC(=O)[C@H](CCCNC(=N)N)NC(=O)[C@H](CO)NC(=O)[C@H](Cc1c[nH]cn1)NC(=O)[C@@H]1CCCN1C(=O)[C@@H](NC(=O)[C@H](CCCNC(=N)N)NC(=O)[C@@H](N)CC(=O)O)C(C)C)C(=O)N[C@H](C(=O)O)[C@@H](C)O [D-11-T] (H-DRVPHSRNSIT-OH)
- inhibition of binding of biotinylated Fn to GPIIb-IIIa [7]: greater than 80%
